± gives the half width of the 95% confidence interval.
Assay: folding stability dG unfold from trypsin proteolysis; higher = more stable
Method in brief: (§1)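 Bayesian fitting of sequencing counts gave K50 for each design. Unfolding free energy followed by setting this against a sequence-predicted unfolded-state K50 and a shared folded-state K50, either per protease or with trypsin and chymotrypsin combined. The designs, under 80 residues and lacking cysteine, were digested in a PA-tagged cDNA display format at 11 threefold-diluted protease concentrations and without protease, and only those with AlphaFold2 dimer inter-PAE above 15 were kept.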

Sequence	folding stability dG unfold [kcal/mol]
GMIVEIVESPEGTVTLYEVLLPGGTPILVGAADEEKLRERVAKELGVSFEKLKITKTTTLSPEELAALLAAS [r1_119_JUSTAS]	1.4 ± 0.02
SAGGKTLYVRIIIENKKTGKKEEKIIKIKNVKTLDELLEKAKKEAEKKGYKIKKIEVYDKKTGKKLKLSAGG [r13_771_TrROS_Hall]	1.79 ± 0.088
SAGGSAGGSAGMVVTINDPKKAKKIDENSVITIPDGKKYKVVKVEVDEKNGYWTLTIEPLSAGGSAGGSAGG [r11_316_JUSTAS]	1.09 ± 0.055
SAGGFKIERDPEDGQVTITFPMPGFGMPFRISIPYDPNGDIDVDIEPSPGMPPHHRDMIENLARELADSAGG [r13_139_TrROS]	0.656 ± 0.16
SAGGSAGGSAGGSKKTLTLPITITVTVTYTNEDGSTTETTYTYTLTINFEVSENDTGLLSAGGSAGGSAGGS [r10_1133_TrMRF]	2.23 ± 0.062
SMPKTIELEIDEDLPEEEVRARLLAQGFEEIEFHELEDPEVRRVTATRPEDDETVVVTVRPPPVPPDAPGSA [r9_1090_JUSTAS]	2.38 ± 0.096
SAGGGMVVYVTVPPDDPRVEELKERLAADPRVSDVTVEKVEEYPDTVRLRFTFPGDPAVVAAARALLSAGGS [r16_394_JUSTAS]	0.995 ± 0.059
SAGGMTTFELYDPVNNKKYTLTYDPATNTLTLYNPENGEILETKPVPNLQSVEAPIVPGGIEVGVVINSAGG [r13_720_JUSTAS]	2.11 ± 0.07
SMTVTLPDGTTVETSVSTEKLPNGTVVTTTTTTFTTPDGTVVPSTTVSVSPAPPTELPFTVLYRPEGSLLSA [r9_1168_JUSTAS]	0.0778 ± 0.015
SAGGSAGGSAGGSLSSNGSSLPPVPPAPVTDEPVEFPTPVLVTVSYYPLTGERRVEVLLSAGGSAGGSAGGS [r4_305_JUSTAS]	-0.291 ± 0.038
SAGGMVIKVTDAEEAIERVIELVKSLGPEAVIKEITVTNTGTVVKVEPGKKGTVSPDSTITVNIEKGSAGGS [r16_267_JUSTAS]	-0.0389 ± 0.066
SAGGSAGGSAGGMVKITFEKDPNSDKGRVTLTDPNATVTLEYDSEEEAEKAIKERFPELESAGGSAGGSAGG [r7_841_JUSTAS]	-0.364 ± 0.14
SAGGPPPDTTVTVTLTRTTPTQWLIEFPATGEVREIPRDPAASDEEAKELVKELAKEEGYNVNINLTSAGGS [r16_446_JUSTAS]	1.05 ± 0.081
SAGGKKKPKVKTITITLPKKDIKIGDVITAEEIAKLLGLPKNAKIKVVEVKYDKETGEVTIKIEIYESAGGS [r16_165_TrROS_Hall]	1.98 ± 0.045
SAMITITLPNGTPVNVEVTVTETRASPDGTLTTTDYELTFHPPDGVPRRGKGTVLSDPATGTTTITIIESAG [r14_789_JUSTAS]	1.47 ± 0.041
SAGGSAGGSAGSMSTPRSSEKMEKDGGGETLVRTLTYPEPSLTRTVRTPPDGSSSSSTSAPSAGGSAGGSAG [r3_28_JUSTAS]	-0.452 ± 0.37
SAGGGPMPIDVEVLEVTPDSVRIRYPETGAVFTFDPNKEHEFTLPDGSRITVTFKPDGSVSATVTVPGSAGG [r13_352_JUSTAS]	4.35 ± 0.3
SAGGSKSKIISASVFTTPDGEKVGVIKVLVKDPNGNPHLVIATIYSDGKIKVSVYYNGKVYTFEFDSAGGSA [r2_182_TrMRF]	2.41 ± 0.079
SAGMYSETLLEEREYPDGTKEKLYRITKPGGVEELRLVREPLTFDPNNGGPGRKEEVKTAKPDEEIELESAG [r5_122_JUSTAS]	0.721 ± 0.026
SAGGKIPISPEALKALDEALKNGDKGDTIPIQTPDGHYIVITPNGRMRFHNGNEREFPIGKIKAIIWSAGGS [r16_664_TrROS]	-0.149 ± 0.14
SAGGSAGGSASMTTLEIEIELDESDIEKVKEELKKELPKNVKVIIHAYDKNGNIIEEIEIEFSAGGSAGGSA [r18_188_JUSTAS]	1.33 ± 0.036

Sequence	folding stability dG unfold [kcal/mol]
GMVEVTEERFEPETGKRIVTIRAPGRDLTVTFDPSTGIATFYDPSDGRTFTVPFTSLEEAVEAAKELALEES [r1_177_JUSTAS]	3.1 ± 0.07
SAGGSAGGSAGGSMSVVVTVKDPRTGSTTTVTVSPAEVEEAIEEAKKKGYSVVTVSEGGSAGGSAGGSAGGS [r4_102_JUSTAS]	1.84 ± 0.1
QEIPIKELIKEALENGRPIVFPNGMEITDINPDGSITVKMPYYNPDDPGQPVQPVEMQIKIDEDGRIEVEFS [r1_284_TrROS]	0.96 ± 0.12
SAGKKKIKIEIVKVEKNENGETIIRVKVKLEDGSEKEITINLDDLKNGNLKNMTAEEIAKLFPNIEIESAGG [r19_74_TrROS_Hall]	2.35 ± 0.062
SAGIEEVAKEIAETLEELLPSEYKILDAKAIPLPDDVVIVPITVQKFDPNGKPLGELQFVVVIPPGEASAGG [r19_28_TrMRF]	0.639 ± 0.068
SMLSEMPPEELAERIARELGLVGAEVEAVRVGDVLLVPLRLRDPVRDEVRLLVLLVVPEDDGRVLLTDLSSA [r9_1042_TrMRF]	1.46 ± 0.027
SAGGSAGGSMRIEFPELGVEVELEPLPGPHVLLRAVFPDGRVYLFRLDPDGRLVEVEPVEVLASAGGSAGGS [r12_56_TrMRF]	2.99 ± 0.089
SAGGSAGGEWVIINIMFRFPPGDPNIKIEIKFPGLPKDMKIEYSIFPTDNWYYIMVSIWVPPNASAGGSAGG [r6_482_TrROS]	3.66 ± 0.29
SAGGSAGGSSFEITVYHPDKGKPFKAKVDIEPELVDGDGKPVLVYKAKITIGDKPFEAVFVLNSAGGSAGGS [r20_39_TrMRF]	2.14 ± 0.08
SAGGSAGGSAGGGYTLVTVTLRSPTPTEEVVEEKYPPSVPLEEVKAKYEPLGWEVSFDLLSAGGSAGGSAGG [r7_226_JUSTAS]	0.936 ± 0.025
SAGGSAGGSAGGVPPESVLLSEEKVGGKTVEIVRDPATGKLYRVTKVPGSDSIEVEELGLSAGGSAGGSAGG [r7_179_JUSTAS]	2.2 ± 0.093
SLSITVPPDKGLVLVNEGLKDGKVKLFLDDKVEEVEVPAGETLVFEVPPDYKGFKLEVIGDDGVVLSVDGSA [r9_143_TrMRF]	0.627 ± 0.13
SAGGGKPVNILIKKPNEIKIIPIPVVKIEPLESPDKLYIIFEDGYIMEFDPKTLELLSIEKVKPIEEASAGG [r13_636_TrMRF]	1.35 ± 0.11
SAGMTAEELAAEALAKLPPGAKEVTVEIEVNGELVTVTITVEAAPPPPPPEETITTVDEDTGEVREETLSAG [r5_236_TrROS_Hall]	1.44 ± 0.058
SAGGSAGGSADGPPTFRVRIKWKNGKKMKFEIDPNDSLEQVADPLSKLPGIDDIKDLEIYPSAGGSAGGSAG [r3_308_TrROS]	0.725 ± 0.13
SAGSMELLEKKEGKLPDGRVYTTETLRNPANGLYEVKTFVFEPGGNPLAEERITYEGDKLVSSETIYLGSAG [r14_828_JUSTAS]	0.199 ± 0.04
SAGGSAGGSAGPVLKIKVEVKLEKKYDKNGKLVEEKLEVKVEIELLEPAPPASDEELKKKSAGGSAGGSAGG [r11_131_TrROS_Hall]	0.29 ± 0.24
SAGMEEKLVEAVFEEGPLEEAVEFIRDFLESEGYEVEPLEVEVLSVEETEEGPRVRVRARVLVRPPDASAGG [r19_325_TrMRF]	1.11 ± 0.081
SPLKPGDVYTEPGGPLLRVEKVTLSEDPNKFPKKLEIELVPIPPPTPTLEEYTLPNGERRTLVLFEFDGPSA [r9_914_JUSTAS]	-0.308 ± 0.31
SADALKKILSNIHSVEFDPKWGWVTIHFPNKSKIKKALKEGFPRVEMQEDPDGHMMIRIRVPKLPPGQPSAG [r14_115_TrROS]	1.82 ± 0.057
SAMTLTVRVKATPEQLKEALEEETGAKVTIEEEEDGVLTITVEVSEEEREKLAEALKKLPGLEIEIEEESAG [r14_521_TrROS_Hall]	1.94 ± 0.067

Assay: folding stability dG unfold from chymotrypsin proteolysis; higher = more stable
Method in brief: as §1

Sequence	folding stability dG unfold [kcal/mol]
GMIVEIVESPEGTVTLYEVLLPGGTPILVGAADEEKLRERVAKELGVSFEKLKITKTTTLSPEELAALLAAS [r1_119_JUSTAS]	1.73 ± 0.053
SAGGKTLYVRIIIENKKTGKKEEKIIKIKNVKTLDELLEKAKKEAEKKGYKIKKIEVYDKKTGKKLKLSAGG [r13_771_TrROS_Hall]	1.28 ± 0.27
SAGGSAGGSAGMVVTINDPKKAKKIDENSVITIPDGKKYKVVKVEVDEKNGYWTLTIEPLSAGGSAGGSAGG [r11_316_JUSTAS]	2.55 ± 0.051
SAGGFKIERDPEDGQVTITFPMPGFGMPFRISIPYDPNGDIDVDIEPSPGMPPHHRDMIENLARELADSAGG [r13_139_TrROS]	0.281 ± 0.43
SAGGSAGGSAGGSKKTLTLPITITVTVTYTNEDGSTTETTYTYTLTINFEVSENDTGLLSAGGSAGGSAGGS [r10_1133_TrMRF]	3.269 ± 0.013
SMPKTIELEIDEDLPEEEVRARLLAQGFEEIEFHELEDPEVRRVTATRPEDDETVVVTVRPPPVPPDAPGSA [r9_1090_JUSTAS]	2.29 ± 0.079
SAGGGMVVYVTVPPDDPRVEELKERLAADPRVSDVTVEKVEEYPDTVRLRFTFPGDPAVVAAARALLSAGGS [r16_394_JUSTAS]	1.51 ± 0.096
SAGGMTTFELYDPVNNKKYTLTYDPATNTLTLYNPENGEILETKPVPNLQSVEAPIVPGGIEVGVVINSAGG [r13_720_JUSTAS]	2.75 ± 0.062
SMTVTLPDGTTVETSVSTEKLPNGTVVTTTTTTFTTPDGTVVPSTTVSVSPAPPTELPFTVLYRPEGSLLSA [r9_1168_JUSTAS]	-0.122 ± 0.16
SAGGSAGGSAGGSLSSNGSSLPPVPPAPVTDEPVEFPTPVLVTVSYYPLTGERRVEVLLSAGGSAGGSAGGS [r4_305_JUSTAS]	0.272 ± 0.07
SAGGMVIKVTDAEEAIERVIELVKSLGPEAVIKEITVTNTGTVVKVEPGKKGTVSPDSTITVNIEKGSAGGS [r16_267_JUSTAS]	0.938 ± 0.075
SAGGSAGGSAGGMVKITFEKDPNSDKGRVTLTDPNATVTLEYDSEEEAEKAIKERFPELESAGGSAGGSAGG [r7_841_JUSTAS]	0.879 ± 0.02
SAGGPPPDTTVTVTLTRTTPTQWLIEFPATGEVREIPRDPAASDEEAKELVKELAKEEGYNVNINLTSAGGS [r16_446_JUSTAS]	0.438 ± 0.29
SAGGKKKPKVKTITITLPKKDIKIGDVITAEEIAKLLGLPKNAKIKVVEVKYDKETGEVTIKIEIYESAGGS [r16_165_TrROS_Hall]	3.29 ± 0.1
SAMITITLPNGTPVNVEVTVTETRASPDGTLTTTDYELTFHPPDGVPRRGKGTVLSDPATGTTTITIIESAG [r14_789_JUSTAS]	1.45 ± 0.028
SAGGSAGGSAGSMSTPRSSEKMEKDGGGETLVRTLTYPEPSLTRTVRTPPDGSSSSSTSAPSAGGSAGGSAG [r3_28_JUSTAS]	0.54 ± 0.11
SAGGGPMPIDVEVLEVTPDSVRIRYPETGAVFTFDPNKEHEFTLPDGSRITVTFKPDGSVSATVTVPGSAGG [r13_352_JUSTAS]	4.13 ± 0.13
SAGGSKSKIISASVFTTPDGEKVGVIKVLVKDPNGNPHLVIATIYSDGKIKVSVYYNGKVYTFEFDSAGGSA [r2_182_TrMRF]	3.95 ± 0.037
SAGMYSETLLEEREYPDGTKEKLYRITKPGGVEELRLVREPLTFDPNNGGPGRKEEVKTAKPDEEIELESAG [r5_122_JUSTAS]	1.12 ± 0.14
SAGGKIPISPEALKALDEALKNGDKGDTIPIQTPDGHYIVITPNGRMRFHNGNEREFPIGKIKAIIWSAGGS [r16_664_TrROS]	0.241 ± 0.2
SAGGSAGGSASMTTLEIEIELDESDIEKVKEELKKELPKNVKVIIHAYDKNGNIIEEIEIEFSAGGSAGGSA [r18_188_JUSTAS]	1.61 ± 0.097
